Measured values reported in PMC12524584, “Structures, Interactions, and Antimicrobial Activity of the Shortest Thanatin Peptide from Anasa tristis” (International Journal of Molecular Sciences, 2025).
Bridges are numbered along the chain shown (N, C = ends). Where no end group is shown, it is not given here.

Molecular target: T1, LptAm of Klebsiella pneumoniae (truncated but functional variant of the LPS transport periplasmic protein … (Klebsiella pneumoniae, UniProt A0A377YZM8 28-159, 15N-labeled))
T1 construct: LptA, periplasmic LPS transport protein of Klebsiella pneumoniae, amino acids 28-159 (LptAm); synthetic gene in pET24a(+); also called 15N-LptAm; source: E. coli BL21, purified (Ni-NTA, size-exclusion chromatography), 15N-labeled in M9 minimal medium
T1 sequence: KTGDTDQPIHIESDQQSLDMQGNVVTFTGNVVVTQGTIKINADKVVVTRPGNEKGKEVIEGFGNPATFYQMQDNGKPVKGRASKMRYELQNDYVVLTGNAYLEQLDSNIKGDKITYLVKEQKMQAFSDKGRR
Assay: NMR titration; 15N-1H HSQC of 15N-LptAm free and with Ana-thanatin at protein:peptide molar ratios 1:1 and 1:2; 298 K
Details: both partners purified

B1: Ana-thanatin (16-residue thanatin from Anasa tristis) (peptide)
peptide: VPIYYCNRKTGKCRRL
modifications: disulfide 6-13 (inferred)
notes: thanatin of the squash bug Anasa tristis, 16 residues, V1-L16; Single disulfide-bonded beta-hairpin peptide; the disulfide would join C6 and C13, the only two Cys; also called Anasa tristis thanatin; Ana-thanatin peptide; source: synthetic peptide (chemically synthesized by GenScript)
In the case of B1, the “stoichiometry N” value is reported as 1.
